Measured values as given in US12295987B2, “Method of using a GIP/GLP1 co-agonist for diabetes” (Eli Lilly and Company, priority 2018, dated 2025).
Numbered stars: 1 amine (or outer) side, 2 acyl side, 3 side chain; on linkers, the order of the positions; unused ones are H or OH. Square brackets hold non-standard residues; d marks the D form. Side chains are listed from the residue outwards. Ends that are not written are not given here. * marks the point of attachment. C20 diacid = O=C(O)CCCCCCCCCCCCCCCCCCC(=O)*; αMePhe(2-F) = C[C@](N)(Cc1ccccc1F)C(=O)O; γGlu = O=C(O)[C@H](CCC(=O)[*:2])N[*:1]; αMeF = C[C@](N)(Cc1ccccc1)C(=O)O; αMeL = CC(C)C[C@](C)(N)C(=O)O; cTA = not defined here; AEEA = NCCOCCOCC(=O)O; Aib = CC(C)(N)C(=O)O

molecular target: T1, human gastric inhibitory peptide receptor (hGIPR) (Homo sapiens, UniProt P48546); assay: cAMP pharmacological functional assay in presence of 0.1% casein, hGIPR; type: cell-based; conditions: ratio of hGIPR to hGLP1R cAMP EC50 ratios
T1 construct: expressed in transfected cells; host or cells: HEK293
T1 sequence (P48546 22-466): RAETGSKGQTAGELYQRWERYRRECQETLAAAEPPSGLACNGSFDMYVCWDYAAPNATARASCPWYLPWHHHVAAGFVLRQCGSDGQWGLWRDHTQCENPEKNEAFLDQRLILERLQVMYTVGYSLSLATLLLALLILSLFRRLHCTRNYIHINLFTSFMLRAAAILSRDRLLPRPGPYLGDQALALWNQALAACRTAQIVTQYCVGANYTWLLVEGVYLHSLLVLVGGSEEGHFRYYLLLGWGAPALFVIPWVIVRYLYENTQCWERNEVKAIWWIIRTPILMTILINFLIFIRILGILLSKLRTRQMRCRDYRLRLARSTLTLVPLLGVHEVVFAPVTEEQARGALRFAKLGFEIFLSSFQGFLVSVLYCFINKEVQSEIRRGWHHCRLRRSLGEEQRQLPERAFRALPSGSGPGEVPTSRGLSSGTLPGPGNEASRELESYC
Protocol: Each receptor over-expressing cell line (20 μl) is treated with the test peptide in DMEM (Gibco Cat #31053) supplemented with 0.1% Casein (Sigma Cat #C4765), 250 μM IBMX, 1× GlutaMAX™ (Gibco Cat #35050), and 20 mM HEPES (HyClone Cat #SH30237.01) in a 20 μl assay volume. […] EC50 is the concentration of compound causing half-maximal simulation in a dose response curve. A relative EC50 value is derived by non-linear regression analysis using the percent maximal response vs. the concentration of peptide added, fitted to a four-parameter logistic equation.
Intracellular cAMP levels are determined by extrapolation using a standard curve. Dose response curves of compounds are plotted as the percentage of stimulation normalized to minimum (buffer only) and maximum (maximum concentration of each control ligand) values and analyzed using a four parameter non-linear regression fit with a variable slope (Genedata Screener 13). EC50 is the concentration of compound causing half-maximal simulation in a dose response curve.
EC50 is the concentration of compound causing half-maximal simulation in a dose response curve.

| Substance | [hGIPR/hGLP1R] EC50 Ratio |
| --- | --- |
| Y-Aib-EGT-αMeF(2F)-TSDHSI-αMeL-LDEK((2-[2-(2-Amino-ethoxy)-ethoxy]-acetyl)2-(γGlu)-CO—(CH2)18—CO2H)AQ-Aib-EFIEYLIEGGPSSGAPPPS-NH2 (Y[Aib]EGT[αMePhe(2-F)]TSDHSI[αMeL]LDEK([AEEA-AEEA-γGlu-C20 diacid])AQ[Aib]EFIEYLIEGGPSSGAPPPS-NH2; N-terminus assumed; SMILES CC[C@H](C)[C@H](NC(=O)[C@H](CC(C)C)NC(=O)[C@H](Cc1ccc(O)cc1)NC(=O)[C@H](CCC(=O)O)NC(=O)[C@@H](NC(=O)[C@H](Cc1ccccc1)NC(=O)[C@H](CCC(=O)O)NC(=O)C(C)(C)NC(=O)[C@H](CCC(N)=O)NC(=O)[C@H](C)NC(=O)[C@H](CCCCNC(=O)COCCOCCNC(=O)COCCOCCNC(=O)CC[C@H](NC(=O)CCCCCCCCCCCCCCCCCCC(=O)O)C(=O)O)NC(=O)[C@H](CCC(=O)O)NC(=O)[C@H](CC(=O)O)NC(=O)[C@H](CC(C)C)NC(=O)[C@](C)(CC(C)C)NC(=O)[C@@H](NC(=O)[C@H](CO)NC(=O)[C@H](Cc1c[nH]cn1)NC(=O)[C@H](CC(=O)O)NC(=O)[C@H](CO)NC(=O)[C@@H](NC(=O)[C@](C)(Cc1ccccc1F)NC(=O)[C@@H](NC(=O)CNC(=O)[C@H](CCC(=O)O)NC(=O)C(C)(C)NC(=O)[C@@H](N)Cc1ccc(O)cc1)[C@@H](C)O)[C@@H](C)O)[C@@H](C)CC)[C@@H](C)CC)C(=O)N[C@@H](CCC(=O)O)C(=O)NCC(=O)NCC(=O)N1CCC[C@H]1C(=O)N[C@@H](CO)C(=O)N[C@@H](CO)C(=O)NCC(=O)N[C@@H](C)C(=O)N1CCC[C@H]1C(=O)N1CCC[C@H]1C(=O)N1CCC[C@H]1C(=O)N[C@@H](CO)C(N)=O) [Peptide 154] | 4.80 |
| Y-Aib-EGT-αMeF(2F)-TSD-cTA-SI-αMeL-LDEK((2-[2-(2-Amino-ethoxy)-ethoxy]-acetyl)2-(γGlu)-CO—(CH2)18—CO2H)AQ-Aib-EFIEYLIEGGPSSGAPPPS-NH2 (YXEGTXTSDXSIXLDEKAQXEFIEYLIEGGPSSGAPPPS; Aib, cTA, αMeF(2F), αMeL; acylated lysine C20 diacid; amide; (2)..(2) Xaa at position 2 is Aib; (6)..(6) Xaa at position 6 is alpha-methyl-Phe(2F); (10)..(10) Xaa at position 10 is cTA; (13)..(13) Xaa at position 13 is alpha-methyl-Leu; MOD_RES (17)..(17) Lys at position 17 is chemically modified by conjugation of the epsilon-amino group of the Lys side chain with (2-[2-(2-amino-ethoxy)-ethoxy]-acetyl)2-(gamma-Glu)-CO-(CH2)18- CO2H; (20)..(20) Xaa at positi) [Peptide 155] | 5.97 |
| Y-Aib-EGT-αMeF(2F)-TSDYSI-αMeL-LDEK((2-[2-(2-Amino-ethoxy)-ethoxy]-acetyl)2-(γGlu)-CO—(CH2)18—CO2H)AQ-Aib-EFIAYLIEGGPSSGAPPPS-NH2 (YXEGTXTSDYSIXLDEKAQXEFIAYLIEGGPSSGAPPPS; Aib, αMeF(2F), αMeL; acylated lysine C20 diacid; amide; (2)..(2) Xaa at position 2 is Aib; (6)..(6) Xaa at position 6 is alpha-methyl-Phe(2F); (13)..(13) Xaa at position 13 is alpha-methyl-Leu; MOD_RES (17)..(17) Lys at position 17 is chemically modified by conjugation of the epsilon-amino group of the Lys side chain with (2-[2-(2-amino-ethoxy)-ethoxy]-acetyl)2-(gamma-Glu)-CO-(CH2)18- CO2H; (20)..(20) Xaa at position 20 is Aib; MOD_RES (39)..(39) Ser a) [Peptide 148] | 3.14 |
| Y-Aib-EGT-αMeF(2F)-TSDYSI-αMeL-LDEK((2-[2-(2-Amino-ethoxy)-ethoxy]-acetyl)2-(γGlu)-CO—(CH2)18—CO2H)AQ-Aib-EFIHYLIEGGPSSGAPPPS-NH2 (YXEGTXTSDYSIXLDEKAQXEFIHYLIEGGPSSGAPPPS; Aib, αMeF(2F), αMeL; acylated lysine C20 diacid; amide; (2)..(2) Xaa at position 2 is Aib; (6)..(6) Xaa at position 6 is alpha-methyl-Phe(2F); (13)..(13) Xaa at position 13 is alpha-methyl-Leu; MOD_RES (17)..(17) Lys at position 17 is chemically modified by conjugation of the epsilon-amino group of the Lys side chain with (2-[2-(2-amino-ethoxy)-ethoxy]-acetyl)2-(gamma-Glu)-CO-(CH2)18- CO2H; (20)..(20) Xaa at position 20 is Aib; MOD_RES (39)..(39) Ser a) [Peptide 153] | 3.39 |
| Y-Aib-EGT-αMeF(2F)-TSDYSI-αMeL-LDEK((2-[2-(2-Amino-ethoxy)-ethoxy]-acetyl)2-(γGlu)-CO—(CH2)18—CO2H)AQ-Aib-EFISYLIEGGPSSGAPPPS-NH2 (YXEGTXTSDYSIXLDEKAQXEFISYLIEGGPSSGAPPPS; Aib, αMeF(2F), αMeL; acylated lysine C20 diacid; amide; (2)..(2) Xaa at position 2 is Aib; (6)..(6) Xaa at position 6 is alpha-methyl-Phe(2F); (13)..(13) Xaa at position 13 is alpha-methyl-Leu; MOD_RES (17)..(17) Lys at position 17 is chemically modified by conjugation of the epsilon-amino group of the Lys side chain with (2-[2-(2-amino-ethoxy)-ethoxy]-acetyl)2-(gamma-Glu)-CO-(CH2)18- CO2H; (20)..(20) Xaa at position 20 is Aib; MOD_RES (39)..(39) Ser a) [Peptide 150] | 3.34 |
| Y-Aib-EGT-αMeF-TSDYSI-αMeL-LDKK((2-[2-(2-Amino-ethoxy)-ethoxy]-acetyl)2-(γGlu)-CO—(CH2)18—CO2H)AQ-Aib-AFIEYLIEGGPSSGAPPPS-NH2 (YXEGTXTSDYSIXLDKKAQXAFIEYLIEGGPSSGAPPPS; Aib, αMeF, αMeL, lipidated Lys, C-terminal amide; (2)..(2) Xaa at position 2 is Aib; (6)..(6) Xaa at position 6 is alpha-methyl-Phe; (13)..(13) Xaa at position 13 is alpha-methyl-Leu; MOD_RES (17)..(17) Lys at position 17 is chemically modified by conjugation of the epsilon-amino group of the Lys side chain with (2-[2-(2-amino-ethoxy)-ethoxy]-acetyl)2-(gamma-Glu)-CO-(CH2)18- CO2H; (20)..(20) Xaa at position 20 is Aib; MOD_RES (39)..(39) Ser at po) [Peptide 69] | 3.21 |
| Y-Aib-EGT-αMeF(2F)-TSDYSI-αMeL-LD-Dap-K((2-[2-(2-Amino-ethoxy)-ethoxy]-acetyl)2-(γGlu)-CO—(CH2)16—CO2H)AQ-Aib-EFI-(D-Glu)-YLIEGGPSSGAPPPS-NH2 (YXEGTXTSDYSIXLDXKAQXEFIXYLIEGGPSSGAPPPS; Aib, αMeF(2F), αMeL, Dap, D-Glu; lipidated K; amide; (2)..(2) Xaa at position 2 is Aib; (6)..(6) Xaa at position 6 is alpha-methyl-Phe(2F); (13)..(13) Xaa at position 13 is alpha-methyl-Leu; (16)..(16) Xaa at position 16 is Dap; MOD_RES (17)..(17) Lys at position 17 is chemically modified by conjugation of the epsilon-amino group of the Lys side chain with (2-[2-(2-amino-ethoxy)-ethoxy]-acetyl)2-(gamma-Glu)-CO-(CH2)16- CO2H; (20)..(20) Xaa at positi) [Peptide 210] | 5.24 |
| Y-Aib-cTA-GT-αMeF-TSDYSI-αMeL-LDEK((2-[2-(2-Amino-ethoxy)-ethoxy]-acetyl)2-(γGlu)-CO—(CH2)18—CO2H)AQ-Aib-AFIEYLIEGGPSSGAPPPS-NH2 (Y[Aib][cTA]GT[αMeF]TSDYSI[αMeL]LDEK([AEEA-AEEA-γGlu-C20 diacid])AQ[Aib]AFIEYLIEGGPSSGAPPPS-NH2; reading uncertain; also: printed as Y-Aib-cTA-GT-αMeF-TSDYSI-αMeL-LDEK((2-[2-(2-Amino-ethoxy)-ethoxy]-acetyl)2-(γGlu)-CO—(CH2)18—CO2H)AQ-Aib-AFIEYLIEGGPSSGAPPPS-NH2) [Peptide 120] | 5.24 |
